Results reported in patent US20260116944A1, “NOVEL TRIPLE GLP-1/GIP/GLUCAGON RECEPTOR AGONIST AND A PHARMACEUTICAL COMPOSITION FOR PREVENTING OR TREATING OBESITY COMPRISING THE SAME” (HANMI PHARM. CO., LTD., priority 2022, published 2026).
Blank lines part the entries; values can stand above or below the binder they belong to. *1 amine or outer side, *2 acyl side, *3 side chain or, on linkers, in order; H or OH if unused. Bridges are numbered along the chain shown (N, C = ends). Where no end group is shown, it is not given here. Side-chain parts run from the residue outwards. [ ]: non-standard residue; d: D form. The star is where a group is joined. C20 diacid = O=C(O)CCCCCCCCCCCCCCCCCCC(=O)*; γGlu = O=C(O)[C@H](CCC(=O)[*:2])N[*:1]; AEEA = NCCOCCOCC(=O)O; Aib = CC(C)(N)C(=O)O

Experiments:
Assay in all cases: cell-based or functional assay
human GLP-1 receptor = human GLP-1 receptor (human, UniProt P43220 24-463)
human GCG receptor = human GCG receptor (human, UniProt P47871 26-477)
human GCG receptor, sequence (P47871 26-477): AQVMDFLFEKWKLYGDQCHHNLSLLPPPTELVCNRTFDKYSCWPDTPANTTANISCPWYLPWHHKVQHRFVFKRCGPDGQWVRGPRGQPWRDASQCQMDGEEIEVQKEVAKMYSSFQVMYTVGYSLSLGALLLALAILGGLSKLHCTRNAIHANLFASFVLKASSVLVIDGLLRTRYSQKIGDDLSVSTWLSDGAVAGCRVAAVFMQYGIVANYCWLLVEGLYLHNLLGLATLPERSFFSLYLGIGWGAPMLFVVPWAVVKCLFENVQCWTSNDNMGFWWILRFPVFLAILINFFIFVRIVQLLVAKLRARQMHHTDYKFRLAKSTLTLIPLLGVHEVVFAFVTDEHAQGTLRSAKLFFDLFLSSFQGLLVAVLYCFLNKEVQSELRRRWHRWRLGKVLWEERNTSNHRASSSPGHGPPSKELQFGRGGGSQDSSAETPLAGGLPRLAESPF

human GIP receptor = molecular target: T1, human GIP receptor (human, UniProt P48546 22-466)
T1 sequence (looked up): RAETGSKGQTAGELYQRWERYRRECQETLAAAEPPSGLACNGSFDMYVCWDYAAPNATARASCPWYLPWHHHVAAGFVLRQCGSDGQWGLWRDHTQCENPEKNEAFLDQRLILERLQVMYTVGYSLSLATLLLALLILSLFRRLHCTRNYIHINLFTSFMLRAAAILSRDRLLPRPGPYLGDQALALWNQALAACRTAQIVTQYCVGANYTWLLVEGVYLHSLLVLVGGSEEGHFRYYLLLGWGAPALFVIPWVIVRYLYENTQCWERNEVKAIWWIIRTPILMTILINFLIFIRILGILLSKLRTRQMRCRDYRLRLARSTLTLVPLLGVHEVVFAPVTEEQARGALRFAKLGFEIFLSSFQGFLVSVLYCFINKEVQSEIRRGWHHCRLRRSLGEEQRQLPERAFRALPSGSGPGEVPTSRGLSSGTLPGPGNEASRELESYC

B2: triple agonist of SEQ ID NO: 1 (peptide)
peptide: Y[Aib]QGTFTSDYSK([AEEA-AEEA-γGlu-C20 diacid])YLDEKAAKEFVQWLLDHHPSSGQPPPS-NH2
modifications: lactam 16-20; N-terminus assumed
SMILES: CC(C)C[C@H](NC(=O)[C@H](Cc1ccc(O)cc1)NC(=O)[C@H](CCCCNC(=O)COCCOCCNC(=O)COCCOCCNC(=O)CC[C@H](NC(=O)CCCCCCCCCCCCCCCCCCC(=O)O)C(=O)O)NC(=O)[C@H](CO)NC(=O)[C@H](Cc1ccc(O)cc1)NC(=O)[C@H](CC(=O)O)NC(=O)[C@H](CO)NC(=O)[C@@H](NC(=O)[C@H](Cc1ccccc1)NC(=O)[C@@H](NC(=O)CNC(=O)[C@H](CCC(N)=O)NC(=O)C(C)(C)NC(=O)[C@@H](N)Cc1ccc(O)cc1)[C@@H](C)O)[C@@H](C)O)C(=O)N[C@@H](CC(=O)O)C(=O)N[C@H]1CCC(=O)NCCCC[C@@H](C(=O)N[C@@H](CCC(=O)O)C(=O)N[C@@H](Cc2ccccc2)C(=O)N[C@H](C(=O)N[C@@H](CCC(N)=O)C(=O)N[C@@H](Cc2c[nH]c3ccccc23)C(=O)N[C@@H](CC(C)C)C(=O)N[C@@H](CC(C)C)C(=O)N[C@@H](CC(=O)O)C(=O)N[C@@H](Cc2c[nH]cn2)C(=O)N[C@@H](Cc2c[nH]cn2)C(=O)N2CCC[C@H]2C(=O)N[C@@H](CO)C(=O)N[C@@H](CO)C(=O)NCC(=O)N[C@@H](CCC(N)=O)C(=O)N2CCC[C@H]2C(=O)N2CCC[C@H]2C(=O)N2CCC[C@H]2C(=O)N[C@@H](CO)C(N)=O)C(C)C)NC(=O)[C@H](C)NC(=O)[C@H](C)NC(=O)[C@H](CCCCN)NC1=O
In vitro Activity Compared to Native Peptide (%) vs. GLP-1 (relative titer from cAMP EC50) (human GLP-1 receptor): 5.88 % of human GLP-1
In vitro Activity Compared to Native Peptide (%) vs. Glucagon (relative titer from cAMP EC50) (human GCG receptor): 0.33 % of human GCG
In vitro Activity Compared to Native Peptide (%) vs. GIP (relative titer from cAMP EC50) (human GIP receptor): 5.18 % of human GIP

B4: triple agonist of SEQ ID NO: 4 (peptide)
peptide: Y[Aib]QGTFTSDYSK([AEEA-AEEA-γGlu-C20 diacid])YLDEKRAKDFVQWLLDHHPSSGQPPPS-NH2
modifications: lactam 16-20; N-terminus assumed
SMILES: CC(C)C[C@H](NC(=O)[C@H](Cc1ccc(O)cc1)NC(=O)[C@H](CCCCNC(=O)COCCOCCNC(=O)COCCOCCNC(=O)CC[C@H](NC(=O)CCCCCCCCCCCCCCCCCCC(=O)O)C(=O)O)NC(=O)[C@H](CO)NC(=O)[C@H](Cc1ccc(O)cc1)NC(=O)[C@H](CC(=O)O)NC(=O)[C@H](CO)NC(=O)[C@@H](NC(=O)[C@H](Cc1ccccc1)NC(=O)[C@@H](NC(=O)CNC(=O)[C@H](CCC(N)=O)NC(=O)C(C)(C)NC(=O)[C@@H](N)Cc1ccc(O)cc1)[C@@H](C)O)[C@@H](C)O)C(=O)N[C@@H](CC(=O)O)C(=O)N[C@H]1CCC(=O)NCCCC[C@@H](C(=O)N[C@@H](CC(=O)O)C(=O)N[C@@H](Cc2ccccc2)C(=O)N[C@H](C(=O)N[C@@H](CCC(N)=O)C(=O)N[C@@H](Cc2c[nH]c3ccccc23)C(=O)N[C@@H](CC(C)C)C(=O)N[C@@H](CC(C)C)C(=O)N[C@@H](CC(=O)O)C(=O)N[C@@H](Cc2c[nH]cn2)C(=O)N[C@@H](Cc2c[nH]cn2)C(=O)N2CCC[C@H]2C(=O)N[C@@H](CO)C(=O)N[C@@H](CO)C(=O)NCC(=O)N[C@@H](CCC(N)=O)C(=O)N2CCC[C@H]2C(=O)N2CCC[C@H]2C(=O)N2CCC[C@H]2C(=O)N[C@@H](CO)C(N)=O)C(C)C)NC(=O)[C@H](C)NC(=O)[C@H](CCCNC(=N)N)NC(=O)[C@H](CCCCN)NC1=O
In vitro Activity Compared to Native Peptide (%) vs. GLP-1 (relative titer from cAMP EC50) (human GLP-1 receptor): 3.71 % of human GLP-1
In vitro Activity Compared to Native Peptide (%) vs. Glucagon (relative titer from cAMP EC50) (human GCG receptor): 2.36 % of human GCG
In vitro Activity Compared to Native Peptide (%) vs. GIP (relative titer from cAMP EC50) (human GIP receptor): 3.81 % of human GIP

Next, values leading:

In vitro Activity Compared to Native Peptide (%) vs. GLP-1 (relative titer from cAMP EC50) (human GLP-1 receptor): 2.36 % of human GLP-1
In vitro Activity Compared to Native Peptide (%) vs. Glucagon (relative titer from cAMP EC50) (human GCG receptor): 1.51 % of human GCG
In vitro Activity Compared to Native Peptide (%) vs. GIP (relative titer from cAMP EC50) (human GIP receptor): 5.29 % of human GIP
B1: triple agonist of SEQ ID NO: 5 (peptide)
peptide: Y[Aib]QGTFTSDYSK([AEEA-AEEA-γGlu-C20 diacid])ALDEKRAKEFVQWLLDQHPSSGQPPPS-NH2
modifications: lactam 16-20; N-terminus assumed
SMILES: CC(C)C[C@H](NC(=O)[C@H](C)NC(=O)[C@H](CCCCNC(=O)COCCOCCNC(=O)COCCOCCNC(=O)CC[C@H](NC(=O)CCCCCCCCCCCCCCCCCCC(=O)O)C(=O)O)NC(=O)[C@H](CO)NC(=O)[C@H](Cc1ccc(O)cc1)NC(=O)[C@H](CC(=O)O)NC(=O)[C@H](CO)NC(=O)[C@@H](NC(=O)[C@H](Cc1ccccc1)NC(=O)[C@@H](NC(=O)CNC(=O)[C@H](CCC(N)=O)NC(=O)C(C)(C)NC(=O)[C@@H](N)Cc1ccc(O)cc1)[C@@H](C)O)[C@@H](C)O)C(=O)N[C@@H](CC(=O)O)C(=O)N[C@H]1CCC(=O)NCCCC[C@@H](C(=O)N[C@@H](CCC(=O)O)C(=O)N[C@@H](Cc2ccccc2)C(=O)N[C@H](C(=O)N[C@@H](CCC(N)=O)C(=O)N[C@@H](Cc2c[nH]c3ccccc23)C(=O)N[C@@H](CC(C)C)C(=O)N[C@@H](CC(C)C)C(=O)N[C@@H](CC(=O)O)C(=O)N[C@@H](CCC(N)=O)C(=O)N[C@@H](Cc2c[nH]cn2)C(=O)N2CCC[C@H]2C(=O)N[C@@H](CO)C(=O)N[C@@H](CO)C(=O)NCC(=O)N[C@@H](CCC(N)=O)C(=O)N2CCC[C@H]2C(=O)N2CCC[C@H]2C(=O)N2CCC[C@H]2C(=O)N[C@@H](CO)C(N)=O)C(C)C)NC(=O)[C@H](C)NC(=O)[C@H](CCCNC(=N)N)NC(=O)[C@H](CCCCN)NC1=O

In vitro Activity Compared to Native Peptide (%) vs. GLP-1 (relative titer from cAMP EC50) (human GLP-1 receptor): 7.94 % of human GLP-1
In vitro Activity Compared to Native Peptide (%) vs. Glucagon (relative titer from cAMP EC50) (human GCG receptor): 1.36 % of human GCG
In vitro Activity Compared to Native Peptide (%) vs. GIP (relative titer from cAMP EC50) (human GIP receptor): 6.11 % of human GIP
B3: triple agonist of SEQ ID NO: 6 (peptide)
peptide: H[Aib]HGTFTSDYSK([AEEA-AEEA-γGlu-C20 diacid])YLDEKAAKDFVQWLLDQHPSSGQPPPS-NH2
modifications: lactam 16-20; N-terminus assumed
SMILES: CC(C)C[C@H](NC(=O)[C@H](Cc1ccc(O)cc1)NC(=O)[C@H](CCCCNC(=O)COCCOCCNC(=O)COCCOCCNC(=O)CC[C@H](NC(=O)CCCCCCCCCCCCCCCCCCC(=O)O)C(=O)O)NC(=O)[C@H](CO)NC(=O)[C@H](Cc1ccc(O)cc1)NC(=O)[C@H](CC(=O)O)NC(=O)[C@H](CO)NC(=O)[C@@H](NC(=O)[C@H](Cc1ccccc1)NC(=O)[C@@H](NC(=O)CNC(=O)[C@H](Cc1c[nH]cn1)NC(=O)C(C)(C)NC(=O)[C@@H](N)Cc1c[nH]cn1)[C@@H](C)O)[C@@H](C)O)C(=O)N[C@@H](CC(=O)O)C(=O)N[C@H]1CCC(=O)NCCCC[C@@H](C(=O)N[C@@H](CC(=O)O)C(=O)N[C@@H](Cc2ccccc2)C(=O)N[C@H](C(=O)N[C@@H](CCC(N)=O)C(=O)N[C@@H](Cc2c[nH]c3ccccc23)C(=O)N[C@@H](CC(C)C)C(=O)N[C@@H](CC(C)C)C(=O)N[C@@H](CC(=O)O)C(=O)N[C@@H](CCC(N)=O)C(=O)N[C@@H](Cc2c[nH]cn2)C(=O)N2CCC[C@H]2C(=O)N[C@@H](CO)C(=O)N[C@@H](CO)C(=O)NCC(=O)N[C@@H](CCC(N)=O)C(=O)N2CCC[C@H]2C(=O)N2CCC[C@H]2C(=O)N2CCC[C@H]2C(=O)N[C@@H](CO)C(N)=O)C(C)C)NC(=O)[C@H](C)NC(=O)[C@H](C)NC(=O)[C@H](CCCCN)NC1=O

In vitro Activity Compared to Native Peptide (%) vs. GLP-1 (relative titer from cAMP EC50) (human GLP-1 receptor): 4.21 % of human GLP-1
In vitro Activity Compared to Native Peptide (%) vs. Glucagon (relative titer from cAMP EC50) (human GCG receptor): 3.32 % of human GCG
In vitro Activity Compared to Native Peptide (%) vs. GIP (relative titer from cAMP EC50) (human GIP receptor): 5.26 % of human GIP
B5: triple agonist of SEQ ID NO: 7 (peptide)
peptide: Y[Aib]QGTFTSDYSK([AEEA-AEEA-γGlu-C20 diacid])YLDEKRAKDFVQWLLDQHPSSGQPPPS-NH2
modifications: lactam 16-20; N-terminus assumed
SMILES: CC(C)C[C@H](NC(=O)[C@H](Cc1ccc(O)cc1)NC(=O)[C@H](CCCCNC(=O)COCCOCCNC(=O)COCCOCCNC(=O)CC[C@H](NC(=O)CCCCCCCCCCCCCCCCCCC(=O)O)C(=O)O)NC(=O)[C@H](CO)NC(=O)[C@H](Cc1ccc(O)cc1)NC(=O)[C@H](CC(=O)O)NC(=O)[C@H](CO)NC(=O)[C@@H](NC(=O)[C@H](Cc1ccccc1)NC(=O)[C@@H](NC(=O)CNC(=O)[C@H](CCC(N)=O)NC(=O)C(C)(C)NC(=O)[C@@H](N)Cc1ccc(O)cc1)[C@@H](C)O)[C@@H](C)O)C(=O)N[C@@H](CC(=O)O)C(=O)N[C@H]1CCC(=O)NCCCC[C@@H](C(=O)N[C@@H](CC(=O)O)C(=O)N[C@@H](Cc2ccccc2)C(=O)N[C@H](C(=O)N[C@@H](CCC(N)=O)C(=O)N[C@@H](Cc2c[nH]c3ccccc23)C(=O)N[C@@H](CC(C)C)C(=O)N[C@@H](CC(C)C)C(=O)N[C@@H](CC(=O)O)C(=O)N[C@@H](CCC(N)=O)C(=O)N[C@@H](Cc2c[nH]cn2)C(=O)N2CCC[C@H]2C(=O)N[C@@H](CO)C(=O)N[C@@H](CO)C(=O)NCC(=O)N[C@@H](CCC(N)=O)C(=O)N2CCC[C@H]2C(=O)N2CCC[C@H]2C(=O)N2CCC[C@H]2C(=O)N[C@@H](CO)C(N)=O)C(C)C)NC(=O)[C@H](C)NC(=O)[C@H](CCCNC(=N)N)NC(=O)[C@H](CCCCN)NC1=O
